Laboratory results from article PMC5461201.

Tests used:
[1] = molecular target: FLAG-ADAR1p110-T/S-to-D (phosphomimetic mutant) (human); experiment: pull-down
[2] = molecular target: FLAG-ADAR1p110-T/S-to-A (phosphorylation inhibitory mutant) (human); experiment: pull-down

binding efficiency (judged from unbound His-Xpo5 in flow-through) [1]: 70%
fold amount bound against ADAR1p110-T/S-to-A [1]: 10 to 20 fold
binding efficiency (judged from unbound His-Xpo5 in flow-through) [2]: < 10%
Substance: Xpo5-RanGTP complex (His-Xpo5 with His-RanQ69L and GTP, preassembled with VARdm RNA) (from UniProt Q9HAV4 1-1204; P62826 1-216)
